T1: Mcl-1, Q07820
T1 chain: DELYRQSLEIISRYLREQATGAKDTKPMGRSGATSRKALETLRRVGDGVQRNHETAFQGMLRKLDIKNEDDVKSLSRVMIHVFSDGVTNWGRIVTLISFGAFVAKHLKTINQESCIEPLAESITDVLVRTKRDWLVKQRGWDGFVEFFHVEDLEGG

T2: Bfl-1, Q16548
T2 chain: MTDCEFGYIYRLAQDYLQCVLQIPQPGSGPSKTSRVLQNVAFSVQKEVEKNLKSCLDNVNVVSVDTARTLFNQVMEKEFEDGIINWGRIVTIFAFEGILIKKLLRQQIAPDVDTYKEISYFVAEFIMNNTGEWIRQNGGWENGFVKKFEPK


How the values were obtained:
Test in all cases: peptide SPOT array, c-Myc-tagged receptor at 1 uM or 100 nM, anti-c-Myc-Cy3
Mcl-1, Q07820 = molecular target: T1, Mcl-1, Q07820
Bcl-xL, Q07817 = molecular target: Bcl-xL, Q07817
Bcl-xL, Q07817, sequence (Q07817 1-209): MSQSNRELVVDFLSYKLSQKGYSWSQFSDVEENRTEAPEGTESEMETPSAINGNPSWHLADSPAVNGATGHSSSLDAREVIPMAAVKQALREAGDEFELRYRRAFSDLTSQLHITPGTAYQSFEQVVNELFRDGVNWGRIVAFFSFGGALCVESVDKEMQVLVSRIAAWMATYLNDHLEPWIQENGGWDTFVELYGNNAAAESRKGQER

Bfl-1, Q16548 = molecular target: T2, Bfl-1, Q16548

Binder | SPOT signal as a fraction of Bim BH3's signal on the same receptor and array (Mcl-1, Q07820) | SPOT signal as a fraction of Bim BH3's signal on the same receptor and array (Bcl-xL, Q07817) | SPOT signal as a fraction of Bim BH3's signal on the same receptor and array (Bfl-1, Q16548)
SDIRDDISEQDRHVGRTVRGHPRKKL [TMEM184C] | 0.13 | 0.45 | 0.14
SKEVAILCSFLLGLLDSCFNTQLLSI | 0.05 | 0.09 | 0.04
KLALEQRCREDRARGRRLEETLPRRI [KIF19] | 0.44 | 0.83 | 0.43
AGYELLIQKFLSLYLDQIDMHRKFVV [ISOC1] | 0.07 | 0.09 | 0.05
VLLTLLVAAVLRCQGQDVQEAGSCVQ [COL2A1] | 0.04 | 0.06 | 0.04
SKEVAILCSFLLGLGDSCFNTQLLSI | 0.05 | 0.09 | 0.04
PALLVHWAKCLQKMGRGLNSSYDQQE | 0.51 | 0.89 | 0.47
TETKATFGVHLKIVGDWTERFRDLLL [NOX4] | 0.08 | 0.16 | 0.11
RVCPYYLSRNLKQQLDIIFMPYNYLL [RTEL1] | 0.75 | 1.16 | 0.52
YIVLGLRKTTLQKVLKEVAELVGRVG [NLRX1] | 0.25 | 0.35 | 0.23
PYLSKHRADRDRRLGDFLNQESFDLA [SMPD2] | 0.51 | 0.49 | 0.56
QCPIFRLGDIFRETLDNFSDVAIQGG [P2RX7] | 0.05 | 0.06 | 0.04
MSLFLRVVFSFTMFGDLFEEEYSTVS [USP40] | 0.07 | 0.07 | 0.04
QEQEQHVPFDIHTYLDQLVSRFPQLN [NCAPH2] | 0.04 | 0.06 | 0.04
LMARPAVALHFQSILDGFKEAVRYVL [SOS2] | 0.84 | 0.48 | 0.44
EQWAREIGAQDRRMADDLNAQYERRR | 0.07 | 0.05 | 0.02

Binder | SPOT signal as a fraction of Bim BH3's signal on the same receptor and array (Mcl-1, Q07820) | SPOT signal as a fraction of Bim BH3's signal on the same receptor and array (Bcl-xL, Q07817) | SPOT signal as a fraction of Bim BH3's signal on the same receptor and array (Bfl-1, Q16548)
AFGLGDLPNLLGLVGDQLGDTERKRR [ADAMTS14] | 0.08 | 0.1 | 0.06
LTETSLISGNLHRILDITSCSVLWLN [FBXW5] | 0.04 | 0.06 | 0.07
SHFVACMTAILNQMGDQHYSFYIETF | 0.06 | 0.07 | 0.05
EQWAREIGAQLRRMLDDLNAQYERRR | 0.11 | 0.19 | 0.09
QAGPVSSGLALRKLLDRVQLLNLLVT [CCDC57] | 0.42 | 0.74 | 0.34
SHFVACMTAIDNQMGDQHYSFYIETF | 0.05 | 0.08 | 0.05
LALLAQPSHLMRQVLRSVFGHICSHL [MYBBP1A] | 0.54 | 0.75 | 0.54
PALLVHWAKCDQKMGRGLNSSYDQQE | 0.41 | 0.38 | 0.26
THFLDEEVKLIKKMLDHLTNLHRLGG [FTL] | 0.05 | 0.07 | 0.04
SQEPLEKAQLLALVLDQLIQSHHYAA [MCF2L2] | 0.04 | 0.06 | 0.03
HTALENCASLDCIRADELQEALTSHC [MYO3A] | 0.03 | 0.05 | 0.03
ERLKGQLCDVLLIVLDQKFRAHKNVL [ZNF295] | 0.19 | 0.41 | 0.19
QRKHEGFERDLAALLDKVNSLGETAE [SPTAN1] | 0.11 | 0.1 | 0.08
VTLLSEVEKMLSNFLDCVQYKEIVKN [SYNE1] | 0.06 | 0.11 | 0.06
HHSSQEMSSEDREYADSFGKCPGGRN [PCYT2] | 0.04 | 0.05 | 0.03
AIILCNVCGNLCTDLDRFLHLHRRTK [MYCBP2] | 0.51 | 0.51 | 0.28

From publication PMC4072508, “Genome-Wide Prediction and Validation of Peptides That Bind Human Prosurvival Bcl-2 Proteins” (PLoS Computational Biology, 2014)
